Experimental data from PMC11326647, “In vitro reconstitution reveals membrane clustering and RNA recruitment by the enteroviral AAA+ ATPase 2C” (PLOS Pathogens, 2023).

How the values were obtained:
[1] = target: 2C (MBP removed by TEV in situ, bound to SUVs) (Poliovirus type 1 Mahoney, UniProt P03300 1128-1456); experiment: SUV co-flotation, TET fluorescence; conditions: protein: recombinant; tags: His6-MBP cleaved by TEV during assay; chain copies: 6; label: 5' TET on strand 1; blunt
mass photometry = target: the molecule itself; experiment: mass photometry
[2] = target: the molecule itself; experiment: cryo-electron tomography (mass from the volume of segmented densities)

B1: dsRNA 20-mer (oligos 1+2) (dsRNA)
RNA 1: CCUCUAACCACAGUCUGAUC
RNA 2: GAUCAGACUGUGGUUAGAGG
binding result [1]: binds

B2: His6-MBP-tagged full-length poliovirus 2C (residues 1-329) (natural protein)
chain: GDSWLKKFTEACNAAKGLEWVSNKISKFIDWLKEKIIPQARDKLEFVTKLRQLEMLENQISTIHQSCPSQEHQEILFNNVRWLSIQSKRFAPLYAVEAKRIQKLEHTINNYIQFKSKHRIEPVCLLVHGSPGTGKSVATNLIARAIAERENTSTYSLPPDPSHFDGYKQQGVVIMDDLNQNPDGADMKLFCQMVSTVEFIPPMASLEEKGILFTSNYVLASTNSSRISPPTVAHSDALARRFAFDMDIQVMNEYSRDGKLNMAMATEMCKNCHQPANFKRCCPLVCGKAIQLMDKSSRVRYSIDQITTMIINERNRRSNIGNCMEALFQ
notes: also called MBP-2C; His6MBP-2C
stoichiometry N (mass photometry): ~6

B3: full-length poliovirus 2C, MBP tag cleaved off in the presence of liposomes (membrane-bound 2C) (natural protein)
chain: B2 chain
notes: also called full-length 2C
stoichiometry N [2]: ~6
